According to patent publication US20250257112A1 (SHIRE NPS PHARMACEUTICALS, published 2025):

Biological target: PTH receptor ("PTHIR")
Test: cell-based or functional assay

B1: PTH(1-84) (ligand)
chain: SVSEIQLMHNLGKHLNSMERVEWLRKKLQDVHNFVALGAPLAPRDAGSQRPRKKEDNVLVESHEKSLGEADKADVNVLTKAKSQ
  cAMP potency (EC50): 0.24 nM
